# Reference: the DeepSol protein solubility set
# Experiment: soluble on expression in E. coli; label from the status in PepcDB or PDB records
row,Sequence,soluble on expression in E. coli
1,MATIHVDGKEYEVNGADNLLEACLSLGLDIPYFCWHPALGSVGACRQCAVKQYQNAEDTRGRLVMSCMTPASDGTFISIDDEEAKQFRESVVEWLMTNHPHDCPVCEEGGNCHLQDMTVMTGHSFRRYRFTKRTHRNQDLGPFISHEMNRCIACYRCVRYYKDYADGTDLGVYGAHDNVYFGRPEDGTLESEFSGNLVEICPTGVFTDKTHSERYNRKWDMQFAPSICQQCSIGCNISPGERYGELRRIENRYNGTVNHYFLCDRGRFGYGYVNLKDRPRQPVQRRGDDFITLNAEQAMQGAADILRQSKKVIGIGSPRASVESNFALRELVGEENFYTGIAHGEQERLQLALKVLREGGIYTPALREIESYDAVLVLGEDVTQTGARVALAVRQAVKGKAREMAAAQKVADWQIAAILNIGQRAKHPLFVTNVDDTRLDDIAAWTYRAPVEDQARLGFAIAHALDNSAPAVDGIEPELQNKIDVIVQALAGAKKPLIISGTNAGSIEVIQAAANVAKALKGRGADVGITMIARSVNSMGLGIMGGGSLEEALTELETGRADAVVVLENDLHRYASATRVNAALAKAPLVMVVDHQRTAIMENAHLVLSSASFAESDGTVINNEGRAQRFFQVYDPAYYDSKTVMLESWRWLHSLHSTLLSREVDWTQLDHVIDAVVAKIPELAGIKDAAPDATFRIRGQKLAREPHRYSGRTAMRANISVHEPRQPQDIDTMFTFSMEGNNQPTAHRSQVPFAWAPGWNSPQAWNKFQDEVGGKLRFGDPGVRLFETSENGLDYFTSVPARFQPQDGKWRIAPYYHLFGSDELSQRAPVFQSRMPQPYIKLNPADAAKLGVNAGTRVSFSYDGNTVTLPVEIAEGLTAGQVGLPMGMSGIAPVLAGAHLEDLKEAQQ,not soluble
2,MATIPSVVREITLVGEQIFDHTQVVRAEIDRFVERFERNERHREFDGILRASHALVESSETPVEGLFDMGKMEHMTQCVDDITKKLQTLVEPKYQKEHDVYLEKVKEDQKKYVDVCREQAMNKMRSMTAHR,not soluble
3,MATKEKHVRKPDWVKIKLNTNENYIGLKKLMRENRLHTVCEEAKCPNIHECWAVRRTATFMILGSVCTRACRFCAVKTGLPTELDWQEPERVAESVRIMNLKHVVVTAVARDDLKDGGAAVFAETVRAIRRKNPFTTIEVLPSDMGGVYENLKILMDARPDILNHNIETVRRLTPRVRARATYERSLEFLRRAKELQPDIPTKSSIMVGLGETKEEIIEAMDDLRANHVDILTIGQYLQPTKKHLKVVKYYHPDEFQELKEIALSKGFSHCEAGPLVRSSYHADEQVSEAAKARQLKA,not soluble
4,MATKRDYYEILGLSKDSSVEDIKKTYRKLALQYHPDRNKEPGAEEKFKEISEAYAVLSDAEKRAQYDRFGHAGIDNQYSAEDIFRGADFGGFGDIFEMFFGGGRRGGPMGPRRGSDLQYDLYVTFEEAAFGVRKDIDIPRTERCSTCSGTGAKPGTSPKRCPNCGGTGQVRTTRSTLGMQFVSTTTCSACHGRGQVVESPCPTCSGAGRVRSRRKMSVNVPAGADSGMTLRLSGEGDAGEPGAPSGDLYIIVHVMEHKYFKRVDYDVISELPISFTQAALGADIMVDTLYGKVKMNIPSGTQTHSVFRLKDKGIQRLQGHGKGDQLVRVIIRTPTKLTQEQKDLLHQFEYLSNGKKPEAEERSRSDKQKSEKPRKSKGLFEKVKDAFES,not soluble
5,MATQHPIGKKTACVVGGTGFVASLLVKLLLQKGYAVNTTVRDPDNQKKVSHLLELQELGDLKIFRADLTDELSFEAPIAGCDFVFHVATPVHFASEDPENDMIKPAIQGVVNVMKACTRAKSVKRVILTSSAAAVTINQLDGTGLVVDEKNWTDIEFLTSAKPPTWGYPASKTLAEKAAWKFAEENNIDLITVIPTLMAGSSLTSDVPSSIGLAMSLITGNEFLINGMKGMQMLSGSVSIAHVEDVCRAHIFVAEKESASGRYICCAANTSVPELAKFLSKRYPQYKVPTDFGDFPPKSKLIISSEKLVKEGFSFKYGIEEIYDESVEYFKAKGLLQN,soluble
6,MATQTSKNPESVHDFTVKDAKENDVDLSIFKGKVLLIVNVASKCGMTNSNYAEMNQLYEKYKDQGLEILAFPCNQFGEEEPGTNDQITDFVCTRFKSEFPIFDKIDVNGENASPLYRFLKLGKWGIFGDDIQWNFAKFLVNKDGQVVDRYYPTTSPLSLERDIKQLLEIS,soluble
7,MATSRMVQARVPEEIQNVASQVIQASGLTVSDVVRVLMTRIAQDKAIPSVLFQPNAETIAAFAEVDEGNLKKFHSVDELFDDLYADD,not soluble
8,MATSSHLNWLIIRNNNAFLLKKRDVKKPFSTEPNNLASVSSYRYSGIVHKKTLGVVPAADKKGFTAVLKKGKYAQRPAKNTVRVDFKAGPRRSLKKLKNLLIGSKYRKDLTQAALRRASAVLRSQKPAPVKGKKAEFAKGKKPELEHHHHHH,not soluble
9,MATVDPIRYPIGTFQAPQQFEAGEVQEWIAAIRGLPNDLRTAVSGLNDEQLNTPYRDGGWTVAQVVHHLADASMNAFLRTKWGVTEDGPTVKPFAESEWAKTADACSLPIEPSLLLLDGLHARWAALLESMTEADFHRTVRPEGAAGEMPLYVLTALYAWHGKHHTAQVASLRKRKGW,not soluble
10,MAVDAVGRQKTIQEIIDSTTNKSTQRNTGELGKDEFLNLLITQLQYQDPLNPVDDKEFISQMAQFSALEQMQNLNKSFSATKAFGMIGKYITGTTSNGSDSGAGFVEGIVRSVKMENGKILLEVNGLDVPVDNVLSVSEESNYYYKYNSSNISQYTGIIGYEVSGSVYDPSTGDIVGVSGIVREIQKGIYEDYAVMDGVEVIISGIDTEFNSADPNFRKDYLTENVGQGVSLIITDAYGYGFKVPVTGVLKDFKIAPNGKIIGILDGVYVPVDSISNIKKPSANTGAADGTNENPQVEQSQTEESQVEEPQVGEPRDEESDSV,soluble
11,MAVPQLYYFNLRGFGEYIRLLFLDNGIQFEDIRFDYEGKEWQEFKKGMLLGQLPCLKVDRQEIVQTGAIMRHLGRVHEKNLARNFNFSKKYLMGKLTFLEKCGLNGSNEQEATFLDMFFEGVRDVRWKYVRSSRTLKSFWERMWKRPNLNAYLEKRKADKVRINGSDKGMN,not soluble
12,MAVQKNVIKGILAGTFALMLSGCVTVPDAIKGSSPTPQQDLVRVMSAPQLYVGQEARFGGKVVAVQNQQGKTRLEIATVPLDSGARPTLGEPSRGRIYADVNGFLDPVDFRGQLVTVVGPITGAVDGKIGNTPYKFMVMQATGYKRWHLTQQVIMPPQPIDPWFYGGRGWPYGHGGWGWYNPGPARVQTVVTE,not soluble
13,MAVSNIWQSYSSSNLHWIYPLYTNNCSQNVKSSFTAEILLKRRCNDIQDILNDRMIELLLQGACDPNKQQNYLQGMSPSRKKKTHVKKFLKKQKKSRKPITLEHGCLSGPVTLRFGNFAGIRDLRGTRCPLHGIKHGVHPKPGERCACQQATLFPSPLARFSCDQSAVLGCAASSTRVYDSIADEFSSLYF,not soluble
14,MAWDLKVKMLGGNDFLVSVTNSMTVSELKKQIAQKIGVPAFQQRLAHQTAVLQDGLTLSSLGLGPSSTVMLVVQNCSEPLSILVRNERGHSNIYEVFLTQTVDTLKKKVSQREQVHEDQFWLSFEGRPMEDKELLGEYGLKPQCTVIKHLRLRGGGGDQCA,not soluble
15,MAYEDLREFIGRLEDKGELARVKHEVSPILEMSEVADRTVKAGGKALLFERPKGYDIPVFMNAFGTERRMKLALEVERLEEIGERLLSALEFRPSSFMDALKGVGMLKDFMSFIPKKTGKAPCKEVVAESLDKFPILKCWPKDAGRFITFPVVITKDPETGEMNAGMYRMQVFDGKTTGMHWQIHKHGAEHFRKMAEKGGGKIEVAVAIGVDPATLYAATAPLPSGISEFMFAGFIRKERLKVTECETVDLLVPANAEIILEGYVRVDEMRVEGPFGDHTGYYTPPEPYPVFHITHITHRENPIYHATVVGKPPMEDAWLGKATERIFLPILRMMHPEIVDINLPVEGAFHNLAIVSIKKRYPGQAKKVMYAIWGTGMLSLTKIVVVVDDDVNVHDMREVVWAVTSRFDPARDVVILPPSPTDSLDHSAYIPNLAGKLGIDATKKWRDEGYEREWPDVVEMDAETKRKVDAIWNEIRNMVLAAALEHHHHHH,not soluble
16,MAYEISKKVLHIVGKTNATYKLIEEGDKILLGLSGGKDSIMLACILARMQKHAPFKFDFKAVTVHYGLGEDLKWLSDLCQEQGIEHEIIYTQIAATINEKRREKSSFCSFCSRLRRGTLYSKALEEGYNKVAIAHHLDDAVESFFMNFTYNGSLRSMPPIYRAENGLLVIRPLIKVREASSIHFVTSQNIPVAPDCNCPAKQPTSDKPPIARLATKNFLKEMQNLHPRFFDSLENAFNNVQANSFSDAKYLDALEHHHHHH,soluble
17,MAYLVAVTACVSGVAHTYMAAERLEKLCLLEKWGVSIETQGALGTENRLADEDIRRADVALLITDIELAGAERFEHCRYVQCSIYAFLREPQRVMSAVRKVLSAPQQTHLILE,soluble
18,MAYPVSPIAGRRSNWRSFAASLNLEDGPASSDSTSSPSEQTSDGGEVYGDPSENLNSRKLKSDELKSLLADSERSKLLKKLSEANQYNRFLKRQLQMKDNDVVKFKSELAVMELELQALVALAEEIANFDVPSGSRKINGKYIQSHLLTRLEAVHDKVMEQIKDVDSLKHQEISVFWVGIAENVQIMGSFDGWSQGEAMSMEYSGYQARFSATLNLRPGRYEIKFLVDGEWRLSLEYPIDGEGSMQNNILVVN,not soluble
19,MAYTLHKMTKKLHKQKFFQFAAFIQKKFDSPLFKAIRKRSCHWSDISNHNDNYDLTVASYNVHKCIGVDKVFNPTRIVQVITELQVDILALQEADKRFGERIGLIDLQLLKAETGLIPVPLNTMSPHGHGWHGNALFLRKGHVCDTLQITLPGIEPRGAVIADLEMEVGPIRVIAAHFGLLRHSRNQQTKMLLSLLQKRPLMPTLLIGDFNEWRIGKGSSLNHFAPYFDSTVGTVPSFPSRFPLLALDRILAFPHQLVIRIENHHSPLARIASDHLPIKAYLDLSHAMATLKK,not soluble
20,MCAKIALLLVLVGAASAAVLPDKFYGTFDLDHSENFDEYLTAKGYGWFTRKLVTFATFKKVFTKTSNKNLFDYSNLTSKKDVHYKNVQLGKAFQGEGLDSTKHEITFTLKDGHLFEHHKPLEGGDAKEETYEYLFDKEFLLVRMSFNGVEGRRFYKRLP,not soluble
21,MCEISVVMPVYNAEMHIKDAIESVLEQSFVDFEFILIDDGSTDHTSSIIQSYNDKRVRLIQNSHNFIESLNLGIENSLGKYMARMDGDDIMHIDRLKIQYAIMQEYPDVTVCGTWMNSIGTYSQTNGLLSTLSGWVEQPLLKFTKGNFLFHPTTMIRMDFLKKNALKYENYPYAEDFKFWVEIAKSGGRFYIDSQPLLYYRISDSQVSSQKSSEQRATTESIINEVLEYLMELNKNEYPELAAAYGDLCKLYEKQLLTKCEVLTLFQTLFSKNEKKLNLLEHHHHHH,soluble
22,MCEQGVSYYNSQELKCCKLCKPGTYSDHRCDKYSDTICGHCPSDTFTSIYNRSPWCHSCRGPCGTNRVEVTPCTPTTNRICHCDSNSYCLLKASDGNCVTCAPKTKCGRGYGKKGEDEMGNTICKKCRKGTYSKTGHHHHHH,soluble
23,MCITFIKTAKSSLDKYKLILLNNRDEQLLRPTKEMHWHDGILSGVDKQENARGTWLGLNENGRIGMMLSITQTQESKNLHAPSRGGIVNEFLNANDTSKMIESLKKCASKYNGFQLVAVEKNSTGLYEVRTLANQQVDEIEVCQLKDEYHVVSNSPPTKPYQKAVQGKKLLREHLENSDQFSVDQIFEKLLSIAKNTTQWYPDAQLQYQTQNVEEYNRPLSAIFIKYPEGTRMYGTRCHTLITVDQKDKINILERRLLPEQSTWHDARFEFVLNGS,not soluble
